Source: patent US7727950B2, “Methods and reagents for assaying protein kinase activity” (The University of Dundee, priority 2002, dated 2010)

What was measured:
[1] = tested on: CC(C)C[C@H](NC(=O)[C@@H](NC(=O)[C@H](CCCNC(=N)N)NC(=O)[C@H](C)NC(=O)[C@@H](N)CCCNC(=N)N)[C@@H](C)O)C(=O)N[C@@H](CO)C(=O)N[C@@H](Cc1ccccc1)C(=O)N[C@@H](C)C(=O)N[C@@H](CCC(=O)O)C(=O)N1CCC[C@H]1C(=O)NCC(=O)O; assay: purified protein, by the assay type; details: other: CaMKII; Standard Substrate = MHRQETVDCLK; 30.0 °C
Description: All protein kinase assays were linear with respect to time. […] The assays with the three generic peptides introduced in this example were carried out in the same buffers as follow. Unlabelled or biotinylated substrate peptides were assayed for 10 min at 30° C. in 50 μl incubations, in the presence of 0.1 mM [y^32P]ATP or unlabelled ATP. Radioactive assays were terminated by spotting 40 μl of each incubation on to phosphocellulose paper followed by immersion in 75 mM phosphoric acid. All papers were subsequently washed a further three times in phosphoric acid, once in acetone, then dried and counted for radioactivity. Non-radioactive assays were terminated by the addition of EDTA to a final concentration of 20 mM, then diluted with an equal volume of phosphate-buffered saline (PBS), containing 0.1% Tween 20 and the biotinylated peptides captured by incubation for 60 min on pre-washed, 96 well Streptavidin coated plates (Equilon A/S, Vedbaek, Denmark). […] The plates were then washed six times (five min per wash) in PBS, 0.1% Tween 20 and binding of the phospho-specific antibody detected by incubating the plates with peroxidase-conjugated anti-sheep antibodies (Pierce). […] Signals were quantitated on LAS-1000IR software (FujiFilm).

[2] = tested on: CC(C)C[C@H](NC(=O)[C@H](CCCNC(=N)N)NC(=O)[C@H](CCCNC(=N)N)NC(=O)[C@@H](N)CCCNC(=N)N)C(=O)N[C@@H](CO)C(=O)N[C@@H](Cc1ccccc1)C(=O)N[C@@H](C)C(=O)N[C@@H](CCC(=O)O)C(=O)N1CCC[C@H]1C(=O)NCC(=O)O; assay: purified protein, by the assay type; details: other: PKA; Standard Substrate = LRRASLG; 30.0 °C
[3] = tested on: T1, CC(C)C[C@H](NC(=O)[C@H](CCCCN)NC(=O)[C@@H](N)CCCCN)C(=O)N[C@@H](CC(N)=O)C(=O)N[C@@H](CCCNC(=N)N)C(=O)N[C@H](C(=O)N[C@@H](CC(C)C)C(=O)N[C@@H](CO)C(=O)N[C@@H](Cc1ccccc1)C(=O)N[C@@H](C)C(=O)N[C@@H](CCC(=O)O)C(=O)N1CCC[C@H]1C(=O)NCC(=O)O)[C@@H](C)O; assay: Kinetic parameters for peptide phosphorylation, radioactive filter-binding assay; format: biochemical, human; details: other: PKBα; Standard Substrate = GRPRTSSFAEG; 30.0 °C
T1 construct: made in house; host or cells: Sf21 insect cells
Source text: Apart from the AMP-activated protein kinase (AMPK, a gift from Drs S. Hawley and D. G. Hardie), cGMP-dependent protein kinase (PKG, a generous gift from Drs Susan Lohmann and Ulrich Walter, University of Wurzburg, Germany) and the catalytic subunit of cyclic AMP-dependent protein kinase (PKA, a gift from Dr C. Smythe), which were isolated from rat liver, bovine lung and bovine heart, respectively, all other protein kinases were expressed as either GST-fusion or His-tagged proteins (by a person, a person, Dr A. Paterson or a person, in this Division). The expressed proteins all corresponded to the human sequences apart from the rat Rho-dependent protein kinase (ROCK-II) and rat mitogen-activated protein kinase (MAPK) activated kinase-1a (MAPKAP-K1a, also called RSK). […]
All protein kinase assays were linear with respect to time. […] All papers were subsequently washed a further three times in phosphoric acid, once in acetone, then dried and counted for radioactivity. […] The plates were then washed six times (five min per wash) in PBS, 0.1% Tween 20 and binding of the phospho-specific antibody detected by incubating the plates with peroxidase-conjugated anti-sheep antibodies (Pierce). […] Signals were quantitated on LAS-1000IR software (FujiFilm). […]

In the case of CaMKII (Homo sapiens), the Km [1] is reported as 300 µM.

Work on PKA (Bos taurus) yielded a Km [2] of 30 µM.

PKBα (Homo sapiens) gave a Km [3] of 2 µM.
